Patent US20160083733A1, “NOVEL TREATMENT OF METABOLIC DISEASES” (UNIVERSITY OF BREMEN, priority 2013, published 2016)

B1: dnMST1: kinase-dead, dominant negative MST1 mutant (K59R) expressed from plasmid (protein, UniProt Q13043 1-487, looked up, variant K59R)
Serine/threonine-protein …: METVQLRNPPRRQLKKLDEDSLTKQPEEVFDVLEKLGEGSYGSVYKAIHKETGQIVAIRQVPVESDLQEIIKEISIMQQCDSPHVVKYYGSYFKNTDLWIVMEYCGAGSVSDIIRLRNKTLTEDEIATILQSTLKGLEYLHFMRKIHRDIKAGNILLNTEGHAKLADFGVAGQLTDTMAKRNTVIGTPFWMAPEVIQEIGYNCVADIWSLGITAIEMAEGKPPYADIHPMRAIFMIPTNPPPTFRKPELWSDNFTDFVKQCLVKSPEQRATATQLLQHPFVRSAKGVSILRDLINEAMDVKLKRQESQQREVDQDDEENSEEDEMDSGTMVRAVGDEMGTVRVASTMTDGANTMIEHDDTLPSQLGTMVINAEDEEEEGTMKRRDETMQPAKPSFLEYFEQKEKENQINSFGKSVPGPLKNSSDWKIPQDGDYEFLKSWTVEDLQKRLLALDPMMEQEIEEIRQKYQSKRQPILDAIEAKKRRQQNF
B2: dnJNK1: dominant negative mutant of JNK1 expressed from plasmid pCDNA3 Jnk1a1 (apf) (protein, UniProt P45983 1-427, looked up, variant T183A Y185F)
Mitogen-activated protein …: MSRSKRDNNFYSVEIGDSTFTVLKRYQNLKPIGSGAQGIVCAAYDAILERNVAIKKLSRPFQNQTHAKRAYRELVLMKCVNHKNIIGLLNVFTPQKSLEEFQDVYIVMELMDANLCQVIQMELDHERMSYLLYQMLCGIKHLHSAGIIHRDLKPSNIVVKSDCTLKILDFGLARTAGTSFMMAPFVVTRYYRAPEVILGMGYKENVDLWSVGCIMGEMVCHKILFPGRDYIDQWNKVIEQLGTPCPEFMKKLQPTVRTYVENRPKYAGYSFEKLFPDVLFPADSEHNKLKASQARDLLSKMLVIDASKRISVDEALQHPYINVWYDPSEAEAPPPKIPDKQLDEREHTIEEWKELIYKEVMDLEERTKNGVIRGQPSPLGAAVINGSQHPSSSSSVNDVSSMSTDPTLASDTDSSLEAAAGPLGCCR

Tests used:
PDX1 = PDX1 protein level, degradation and ubiquitination in HEK293 cells co-transfected with MST1; format: cell-based, mouse; settings: co-transfection with PDX1 in HEK293 cells
From the text: pCMV-myc-MST1 and kinase-dead (MST1-K59; dnMST1) are described in Yamamoto et al., J. Clin. Invest. 111 (2003), 1463-1474. Mouse pB.RSV.PDX1-GFP is described in Kawamori et al., Diabetes 52 (2003) 2896-2904. pcDNA3 Myr-HA Akt1, HA-Ubiquitin and pCDNA3 Jnk1a1 (apf)(dn-JNK) plasmids were obtained from Addgene (Cambridge, Mass.). Mouse PDX1 mutants (T11, T126, T152, T155, T214 and T231) in pCGIG5 vector were generated by site-directed mutagenesis as described previously (Frogne et al., 7 (2012), e35233). All mutations were verified by sequencing. To make bacterial expression plasmids for PDX1 mutants, the complete mouse PDX1 CDS (wild type and mutants) has been amplified by PCR using a specific set of primers from pCGIG5 plasmids and cloned into a pGEX-6P-1 bacterial expression vector. The rat insulin driven luciferase vector (RIP-Luc) was constructed by subcloning a 700 by fragment containing −660 bp of the rat 2 insulin promoter into a pMCS-Green-Renilla-Luc vector (Thermo Scientific). pCMV-Red firefly Luc vector was obtained from Thermo Scientific.
HEK293 cells were cultured in 10-cm cell culture dishes and transfected with HA-ubiquitin, PDX1 and MST1 expression plasmids for 48 h. For ubiquitination in human islets, 5000 islets per condition were transfected with ubiquitin plasmid. After 24 h, islets were infected with Ad-GFP or Ad-MST1 for 6 h and kept for another 48 h. […]

INS-1E cells = assay: Apoptotic markers, cytochrome c release and PDX1 in INS-1E cells under diabetogenic conditions; format: cell-based, rat; settings: 33.3 mM glucose for 48 h, overexpression of dnMST1
From the text: (§1) Human islets were isolated from twenty pancreases of healthy organ donors and from five with T2D at the University of Illinois at Chicago or Lille University and cultured on extracellular matrix (ECM) coated dishes (Novamed, Jerusalem, Israel) as described previously (Schulthess et al., Cell. Metab. 9 (2009) 125-139). Islet purity was greater than 95% as judged by dithizone staining (if this degree of purity was not achieved by routine isolation, islets were handpicked). Islets from MST1^−/− mice and their WT littermates were isolated as described previously (Schulthess et al., Cell. Metab. 9 (2009) 125-139). […]
At the end of the incubation periods, islets and INS1E cells were washed in ice-cold PBS and lysed in lysis buffer containing 20 mM Tris acetate, 0.27 M sucrose, 1 mM EDTA, 1 mM EGTA, 50 mM NaF, 1% Triton X-100, 5 mM sodium pyrophosphate and 10 mM β-glycerophosphate. […] Protein concentrations were determined with the BCA protein assay (Pierce). […] Membrane was developed using a chemiluminescence assay system (Pierce) and analyzed using DocIT®LS image acquisition 6.6a (UVP BioImaging Systems, Upland, Calif., USA). […]

human islets = assay: MST1 overexpression (Ad-MST1)-induced apoptosis in human islets; format: cell-based; settings: Ad-MST1 48 h
From the text: as §1
Pancreatic tissues were processed as previously described (Shu et al., Diabetes 57 (2007), 645-53). […] Slides were mounted with Vectashield with 4′6-diamidino-2-phenylindole (DAPI) (Vector Labs). β-cell apoptosis for mouse sections or primary islets cultured on ECM dishes was analyzed by the terminal deoxynucleotidyl transferase-mediated dUTP nick-end labeling (TUNEL) technique according to the manufacturer's instructions (In Situ Cell Death Detection Kit, TMR red; Roche) and double stained for insulin. Fluorescence was analyzed using a Nikon MEA53200 (Nikon GmbH, Dusseldorf, Germany) microscope and images were acquired using NIS-Elements software (Nikon). […]

Row | Molecule | PDX1 level (PDX1) | glucose-induced caspase-3 and PARP cleavage (INS-1E cells) | MST1-induced increase in Bim and subsequent caspase-3 cleavage (human islets)
1 | B1 | no effect | completely inhibited | –
2 | B2 | – | – | prevented
